The target of test [1] is T1, biotinylated native human ApoC3 (human, UniProt P02656 21-99, biotinylated (site not stated)).
T1 construct: also called biotinylated human ApoC3
Nature of the test: SPR, IgG1 over biotinylated ApoC3 on SA chip, pH 5.5. On the procedure: (§1) Biotinylated native human ApoC3 was captured on a streptavidin coated SPR chip (GE Healthcare, cat. nr. BR100032) at pH 7.4, in accordance with the method provided by Biacore, by injection of 20 μl 10 μg/ml biotinylated native human ApoC3 reaching the surface density of approximately 500 RU. 60 μL of test antibody in 1-50 nM range diluted in HBS-EP buffer (GE, cat # BR-1008-26; 0.010 M HEPES, 0.150M NaCl, 3 mM EDTA, 0.05% (v/v) surfactant P20, pH 7.4) was injected and passed through the flow cells at a flow rate of 30 μl/min, followed by an off-rate wash at pH7.4 for 5 min. After the dissociation, the flow cell surfaces were regenerated by injecting 10 μl of 10 mM NaOH/1 M NaCl and 10 μl of 10 mM glycine at pH1.5. The assay was repeated at pH5.5 using the same general protocol, where the running and sample dilution buffer was replaced by a HBS-EP buffer supplemented with citrate buffer to 10 mM final concentration and pH adjusted to 5.5.
(§2) The resulting sensorgrams were analyzed using the BIAevaluation 4.1 software using Langmuir 1:1 binding model to derive binding kinetics. Data was zero adjusted and the reference cell sensorgrams were subtracted. Sensorgrams were double referenced to no-analyte blank assay. Fitted parameters were considered not applicable if off-rate values were below the equipment's detection limit of kd: 1×10⁻⁶ 1/s.
(In general: SPR reads the build-up and loss of mass on a sensor chip optically.)

Test [2] addresses T1, biotinylated native human ApoC3. Description: SPR, IgG1 over biotinylated ApoC3 on SA chip. On the procedure: as §1, §2
Test [3] addresses T2, native human ApoC3 (human, UniProt P02656 21-99).
T2 construct: also called nhuApoC3; native huApoC3
Description: SPR, ApoC3 over captured IgG1, pH 7.4; pH 7.4; ApoC3 600-50 nM over immobilized antibody. On the procedure:
(§3) An inverted SPR assay was designed in which a test antibody was captured on an SPR chip, human ApoC3 protein was injected, and binding of ApoC3 to the antibody was measured. […] The immobilization was performed in accordance with the method provided by Biacore/GE using the NHS/EDC kit (Biacore AB, Cat.nr. BR-1000-50): after activation of the chip, a solution of 30 μg/ml of anti-human Fcγ antibody in 10 mM acetate buffer with pH of 5.0 was prepared and injected until the surface density reached approximately 10000 RU. The analytical cycle comprised the following steps:
(§4) The resulting sensorgrams were analyzed using the BIAevaluation 4.1 software using Langmuir 1:1 binding model to derive binding kinetics. Data was zero adjusted, the reference cell sensorgrams were subtracted and the no analyte blank assay was used for double referencing the sensorgrams corresponding to the analyte injections. The dissociation and association phase sensorgrams were fitted separately for the 4 different concentration curves. Sensorgrams were excluded from the fitting if maximum RU values reached were below the detection limit of the equipment (<5 RU), Biacore 3000 (Biacore AB).

Test [4] deals with T1, biotinylated native human ApoC3. Nature of the test: SPR, IgG1 over biotinylated ApoC3 on SA chip, pH 7.4. On the procedure: as §1, §2
In test [5] the target is T2, native human ApoC3. Description: SPR, ApoC3 over captured IgG1. Here is the method: as §3, §4
Test [6] deals with T2, native human ApoC3. Nature of the test: SPR, ApoC3 over captured IgG1, pH 5.5. On the procedure: as §3, §4
Test [7] addresses T2, native human ApoC3. Nature of the test: SPR, ApoC3 over captured IgG1, pH 7.4. On the procedure: as §3, §4
Test [8] concerns the target T2, native human ApoC3. Nature of the test: SPR, IgG1 over ApoC3 on CM5 chip, pH 5.5. On the procedure:
(§5) Based on the results in Example 1, test scFv-Fc antibodies were generated as human IgG₁ antibodies. An SPR-based assay was employed, in which human ApoC3 protein was immobilized on a CM5 chip, and the binding kinetics of test antibodies to the coated chip were measured at both pH 7.4 and pH 5.5. Briefly, a solution of 50 μg/ml of native human ApoC3 in 10 mM acetate buffer at pH 4.5 was prepared and injected until the surface density reached approximately 500 RU. 60 μl of each test antibody was diluted in HBS-EP buffer (GE, cat. nr. BR-1008-26; 0.010 M HEPES, 0.150M NaCl, 3 mM EDTA, 0.05% (v/v) surfactant P20, pH 7.4), and was injected at a concentration as described in Table 9. The test antibodies were passed through the flow cells at a flow rate of 30 μl/min, followed by an off-rate wash at pH 7.4 or pH 5.5 for 5 min. The resulting sensorgrams were analyzed using the BIAevaluation 4.1 software applying the Langmuir 1:1 binding model to derive binding kinetics. Data was zero adjusted and the reference cell sensorgrams were subtracted.

For test [9], the target named is T2, native human ApoC3. Nature of the test: SPR, IgG1 over ApoC3 on CM5 chip, pH 7.4. Here is the method:
as §5

T2 sequence (P02656 21-99): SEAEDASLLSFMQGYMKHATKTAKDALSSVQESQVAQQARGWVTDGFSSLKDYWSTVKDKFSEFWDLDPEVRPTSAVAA
T1 sequence (P02656 21-99): as above

B1: mAb13 (antibody, IgG1, V domains shown)
VH: QLLESGGGLVQPGGSLRLSCAASGFTFSTYSMRWVRQVPGKGLEWVSSIHTEGGGTAYRDSVKGRFTISRDNSKNTLYLQMNSLRAEDTAVYYCVIAGYSDWGQGTLVTVSS
VL: DIVMTQSPLSLPVTPGEPASISCKTSQGLVHSDGKTYFYWYLQKPGQSPQLLIYQVSNRASGVPDRFSGSGSGTDFTLKISRVEAEDVGVYYCAHGTYYPHTFGQGTRLEIK
notes: Produced as full length IgG1 (kappa) in ExpiCHO-S cells; CDR graft into the closest human germline frameworks; also called humanized anti-ApoC3 antibody mAb13; variant 13
Consider B1, for which the Ka in test [1] was 1.8e+08 M⁻¹; in [3], 998000 M⁻¹; in test [4], 2.38e+08 M⁻¹. Moreover, the koff in test [1] is 0.00267 s⁻¹; in test [3], 0.037 s⁻¹; in test [4], 0.000461 s⁻¹. The on-rate (kon) worked out at 479000 M⁻¹ s⁻¹ in [1], 37000 M⁻¹ s⁻¹ in test [3] and 110000 M⁻¹ s⁻¹ in [4]. In [2], the “KD pH5.5/KD pH7.4” value is 1.33.

B2: mAb19 (antibody, IgG1, V domains shown)
VH: QLVESGGGLVQPGGSLRLSCAASGFTFSTYSMRWVRQAPGKGLEWVSSIHTDAGGTAYRDSVKGRFTISRDNAKNTLYLQMNNLRPEDTAVYYCVIAGYSDWGQGTLVTVSS
VL: DIVMTQSPGSLSVTPGEPASISCKTSQGLVHSGGKTYFYWFLQKPGQSPQQLIYQVSNRASGVPDRFTGSGSGTDFTLKISGVEAEDAGVYYCAQGTYYPHTFGQGTRLEIK
notes: Produced as full length IgG1 (kappa) in ExpiCHO-S cells; also called humanized anti-ApoC3 antibody mAb19
B2: the “KD (nM) pH5.5/pH7.4” value in test [5] worked out at 4.42. In test [1], the Ka was 2.4e+09 M⁻¹, binding was put at a Kd of 0.42 nM, the koff was 0.000296 s⁻¹ and the on-rate constant (kon) turned out to be 710000 M⁻¹ s⁻¹. Moreover, in test [2], the “KD pH5.5/KD pH7.4” value amounted to 9.21. In test [6], this molecule came in with a Ka of 6.37e+06 M⁻¹, a koff of 0.0198 s⁻¹ and a kon of 127000 M⁻¹ s⁻¹. In test [7], this molecule yielded a Ka of 2.82e+07 M⁻¹, a Kd of 36 nM, an off-rate constant (koff) of 0.00463 s⁻¹ and an on-rate constant (kon) of 130000 M⁻¹ s⁻¹. In test [4], the Ka came out at 2.21e+10 M⁻¹, binding was characterised by a dissociation constant (Kd) of 0.05 nM, the off-rate constant (koff) was 2.9e-05 s⁻¹ and the kon stood at 640000 M⁻¹ s⁻¹.

B3: mAb17 (antibody, IgG1, V domains shown)
VH: QLVESGGGLVQPGGSLRLSCAASGFTFSTYSMRWVRQAPGKGLEWVSSIHTEAGGTAYRDSVKGRFTISRDNAKNTLYLQMNNLRAEDTAVYYCVIAGYSDWGQGTLVTVSS
VL: DIVMTQSPLSLPVTPGEPASISCKTSQGLVHSGGKTYFYWFLQKPGQSPQQLIYQVSNRASGVPDRFTGSGSGTDFTLKISRVEAEDAGVYYCAQGTYYPHTFGQGTRLEIK
notes: Produced as full length IgG1 (kappa) in ExpiCHO-S cells; also called humanized anti-ApoC3 antibody mAb17
As to B3, the “KD (nM) pH5.5/pH7.4” value in [5] is 4.12. In test [1], this molecule registered a Ka of 2.92e+09 M⁻¹, a dissociation constant Kd of 0.34 nM, a koff of 0.000276 s⁻¹ and an association rate constant (kon) of 806000 M⁻¹ s⁻¹. In test [2], the “KD pH5.5/KD pH7.4” value was 7.37. Moreover, in test [6], the Ka is 3.89e+06 M⁻¹, the koff was 0.0217 s⁻¹ and the kon was 84500 M⁻¹ s⁻¹. Besides, in [7], the Ka stood at 1.6e+07 M⁻¹, the equilibrium dissociation constant (Kd) came out at 62 nM, the koff is 0.00616 s⁻¹ and the on-rate constant (kon) came out at 98700 M⁻¹ s⁻¹. In test [4], this molecule came in with a Ka of 2.15e+10 M⁻¹, a Kd of 0.05 nM, a koff of 2.33e-05 s⁻¹ and a kon of 503000 M⁻¹ s⁻¹.

B4: 5E5VH5VH12_VLWT human IgG1 (antibody, V domains shown)
VH: QLQLVESGGGLVQPGGSLRLSCAASGFTFGTYSMRWVRQVPRKALEWVSSIHTDGGGTAYRDSVKGRFTISRDNAKNTLYLQMNNLKPEDTAIYYCVIHGYSDWGQGTQVTVSS
VL: ATMLTQSPGSLSVVPGESASISCKTSQGLVHSDGKTYFYWFLQKPGQSPQQLIYQVSNRASGVPDRFTGSGSGTDFTLKISGVKAEDAGVYYCAQGTYYPHTFGSGTRLEIK
In [8], B4 registered a koff of 0.00316 s⁻¹ and an association rate constant (kon) of 156000 M⁻¹ s⁻¹. In [9], this molecule gave a dissociation rate constant (koff) of 0.000305 s⁻¹ and a kon of 61600 M⁻¹ s⁻¹.

B5: 5E5VH12_VL8 human IgG1 (antibody, V domains shown)
VH: QLQLVESGGGLVQPGGSLRLSCAASGFTFGTYSMRWVRQVPRKALEWVSSISTDGGGTAYRDSVKGRFTISRDNAKNTLYLQMNNLKPEDTAIYYCVIHGYSDWGQGTQVTVSS
VL: ATMLTQSPGSLSVVPGESASISCKTSQGLVHSDGKTYFYWFLQKPGQSPQQLIYQVSNRASGVPDRFTGSGSGTDFTLKISGVKAEDAGVYYCAHGTYYPHTFGSGTRLEIK
notes: Tested as human IgG1
On to B5, for which, in [8], the koff was 0.00165 s⁻¹ and the kon turned out to be 188000 M⁻¹ s⁻¹. In test [9], this molecule gave a koff of 0.000163 s⁻¹ and a kon of 267000 M⁻¹ s⁻¹.

B6: 5E5VH5_VLWT human IgG1 (antibody, V domains shown)
VH: QLQLVESGGGLVQPGGSLRLSCAASGFTFGTYSMRWVRQVPRKALEWVSSIHTDGGGTAYRDSVKGRFTISRDNAKNTLYLQMNNLKPEDTAIYYCVIAGYSDWGQGTQVTVSS
VL: ATMLTQSPGSLSVVPGESASISCKTSQGLVHSDGKTYFYWFLQKPGQSPQQLIYQVSNRASGVPDRFTGSGSGTDFTLKISGVKAEDAGVYYCAQGTYYPHTFGSGTRLEIK
In test [8], B6 came in with a koff of 0.000203 s⁻¹ and a kon of 155000 M⁻¹ s⁻¹. For the same molecule, in test [9], the off-rate (koff) came out at 3.77e-05 s⁻¹ and the kon was 178000 M⁻¹ s⁻¹.

B7: 5E5VH5_VL8 human IgG1 (antibody, V domains shown)
VH: QLQLVESGGGLVQPGGSLRLSCAASGFTFGTYSMRWVRQVPRKALEWVSSIHTDGGGTAYRDSVKGRFTISRDNAKNTLYLQMNNLKPEDTAIYYCVIAGYSDWGQGTQVTVSS
VL: ATMLTQSPGSLSVVPGESASISCKTSQGLVHSDGKTYFYWFLQKPGQSPQQLIYQVSNRASGVPDRFTGSGSGTDFTLKISGVKAEDAGVYYCAHGTYYPHTFGSGTRLEIK
notes: Tested as human IgG1; the tested lot is not tied to them in words
As for B7, the koff came to 0.00242 s⁻¹ in test [8]; 0.00242 s⁻¹ in [1]; 0.000173 s⁻¹ in [9]; 0.0127 s⁻¹ in test [7]; 0.000173 s⁻¹ in test [4]. Besides, the kon in test [8] stood at 211000 M⁻¹ s⁻¹; in test [1], 211000 M⁻¹ s⁻¹; in [9] it was 177000 M⁻¹ s⁻¹; in test [7], 42700 M⁻¹ s⁻¹; in test [4] it was 177000 M⁻¹ s⁻¹. Further, the results for the Ka in [1], in test [7] and in [4] were 8.74e+07 M⁻¹, 3.35e+06 M⁻¹ and 1.03e+09 M⁻¹, respectively. The “KD pH5.5/KD pH7.4” value in [2] worked out at 11.7. In test [4], this molecule came in with a Kd of 0.98 nM.

B8: 5E5VHWT_VL8 human IgG1 (antibody, V domains shown)
VH: QLQLVESGGGLVQPGGSLRLSCAASGFTFGTYSMRWVRQVPRKALEWVSSISTDGGGTAYRDSVKGRFTISRDNAKNTLYLQMNNLKPEDTAIYYCVIAGYSDWGQGTQVTVSS
VL: ATMLTQSPGSLSVVPGESASISCKTSQGLVHSDGKTYFYWFLQKPGQSPQQLIYQVSNRASGVPDRFTGSGSGTDFTLKISGVKAEDAGVYYCAHGTYYPHTFGSGTRLEIK
On to B8, for which the dissociation rate constant (koff) in test [8] came to 4.06e-05 s⁻¹; in test [9], 2.84e-05 s⁻¹. Besides, the figures for the kon in test [8] and in test [9] were 731000 M⁻¹ s⁻¹ and 782000 M⁻¹ s⁻¹, respectively.

A word on the koff: it is a measure of how fast the partners let go of each other. Low values mean a long-lived complex, high ones a short-lived complex. As usually defined, the kon is a measure of how fast the partners come together. High values mean faster complex formation, low ones slower complex formation. In general, Kd refers to the concentration at which binding is half-saturated.
